These results are taken from IntAct's records for PubMed 17003044.

First the molecules themselves.
B1: BAR/IMD domain-containing adapter protein 2 (Homo sapiens), Q9UQB8 (parent)
chain: MSLSRSEEMHRLTENVYKTIMEQFNPSLRNFIAMGKNYEKALAGVTYAAKGYFDALVKMGELASESQGSKELGDVLFQMAEVHRQIQNQLEEMLKSFHNELLTQLEQKVELDSRYLSAALKKYQTEQRSKGDALDKCQAELKKLRKKSQGSKNPQKYSDKELQYIDAISNKQGELENYVSDGYKTALTEERRRFCFLVEKQCAVAKNSAAYHSKGKELLAQKLPLWQQACADPSKIPERAVQLMQQVASNGATLPSALSASKSNLVISDPIPGAKPLPVPPELAPFVGRMSAQESTPIMNGVTGPDGEDYSPWADRKAAQPKSLSPPQSQSKLSDSYSNTLPVRKSVTPKNSYATTENKTLPRSSSMAAGLERNGRMRVKAIFSHAAGDNSTLLSFKEGDLITLLVPEARDGWHYGESEKTKMRGWFPFSYTRVLDSDGSDRLHMSLQQGKSSSTGNLLDKDDLAIPPPDYGAASRAFPAQTASGFKQRPYSVAVPAFSQGLDDYGARSMSRNPFAHVQLKPTVTNDRCDLSAQGPEGREHGDGSARTLAGR

In the experiment the parent is B1. As to conditions: with rac1_human RAC1, P63000.
Take K143E;K147E: the “effect of a mutation on the interaction” value was “decreasing interaction strength”.
With R11E;Q23E the entry was “decreasing interaction strength”; with Q23E, “decreasing interaction strength”; with K142A;K143A;R145A;K146A;K147A, “decreasing interaction strength”.
With K143E the entry was “decreasing interaction strength”.
